Key:
[1] = substrate: O=C(O)CCC(=O)C(=O)O; experiment: MALDI-MS peptide hydroxylation assay, steady-state kinetics; type: biochemical, Escherichia coli; settings: co-substrates uL16 peptide fragment and O2; Fe(II), ascorbate; temperature and pH for this row not explicitly stated in main text
[2] = substrate: O=C(O)CCC(=O)C(=O)O; experiment: as above; type: biochemical, Rhodothermus marinus; settings: co-substrates uL16RM peptide fragment and O2, Fe(II), ascorbate, 50 mM HEPES pH 7.5, 37 °C

B1: ycfDEC (Escherichia coli K-12) (protein)
chain: MEYQLTLNWPDFLERHWQKRPVVLKRGFNNFIDPISPDELAGLAMESEVDSRLVSHQDGKWQVSHGPFESYDHLGETNWSLLVQAVNHWHEPTAALMRPFRELPDWRIDDLMISFSVPGGGVGPHLDQYDVFIIQGTGRRRWRVGEKLQMKQHCPHPDLLQVDPFEAIIDEELEPGDILYIPPGFPHEGYALENAMNYSVGFRAPNTRELISGFADYVLQRELGGNYYSDPDVPPRAHPADVLPQEMDKLREMMLELINQPEHFKQWFGEFISQSRHELDIAPPEPPYQPDEIYDALKQGEVLVRLGGLRVLRIGDDVYANGEKIDSPHRPALDALASNIALTAENFGDALEDPSFLAMLAALVNSGYWFFEG
notes: purified E. coli YcfD; construct not described in main text
Work on B1 yielded a Km [1] of 8.6 ± 3.4 µM.

B2: ycfDRM (Rhodothermus marinus DSM 4252) (protein)
chain: MQLPETILGGLAPEEFLANYWQKRPLLIRQALPGFRSPITPEELAGLACEEGVTARLILEKGGAYPWEVRYGPFEPEDFVALPPTHWTLLVQEVDRLVPEVAALLETVRFVPNWRLDDIMVSYAPEGGTVGAHIDNYDVFLVQAWGRRRWQINHRPVEREELVPGLEVRLLAHFEPDAEWILEPGDVLYLPPRIPHYGVALEDCMTFSIGFRAPDQAELAEAMPRMAAWLDGGRRYADPDLTPADEPGEITPEALDQIQALLRALIDDRERLARWFGCIITEPRRGLPPEPPGRPLSAKQLHRRLQQGATLRRNAIPELAYVRHADGSATLFASGEAYELSPELADVAPLLTGRRPLTAETLRPWLERDDFLELLQTLIHSGILSLIPARKR
notes: pET28a NdeI/SacI, expressed in E. coli BL21(DE3); HisTrap and Superdex 75 purified
In the case of B2, the Km [2] is reported as 71.1 ± 12.2 µM.
